Read-outs that look alike come from different tables or passages of the source. Ends that are not written are not given here. Peptide text beside a SMILES is read from it. * marks the point of attachment. Cbz = O=C(OCc1ccccc1)*
Key:
[1] = tested on: PCSK9-induce degradation of LDLR; assay: PCSK9-induced LDLR-EGFP degradation in GRP94 knockdown HEK293 cells with proteasome inhibitor; format: cell-based, human; settings: 5 μM, HEK293, overnight
Method: FIG. 4: Knockdown of GRP94 increases LDLR degradation by PCSK9. At day 0, HEK293 cells were transfected either with a non-targeting siRNA (−) or with siRNAs against GRP94 (+). At day 1, cells were transfected with an empty vector (−) or with plasmids encoding for LDLR-EGFP (SEQ. ID. NO. 69) alone or in combination with PCSK9-mCherry (SEQ. ID. NO. 70). At day 2, cells were washed and incubated overnight with DMSO (−) or 5 μM MG132 overnight in complete media. (a) Total LDLR-EGFP, PCSK9-mCherry, GRP94 and β-actin protein levels were analyzed by immune-blotting in cell lysates as indicated. (b) LDLR-GFP and PCSK9-mCherry were visualized in live cells by confocal microscopy as conditions described above. Data are representative of at least three independent experiments.
To decipher the role of GRP94 on PCSK9, we took advantage of HEK293 cells, as they are easily transfectable in addition to be PCSK9-negative. (Seidah et al., 2003) Cells were transfected with either non-targeting siRNA (−) or with siRNAs against human GRP94 (+) and 24 h later without (−) or plasmids encoding for fluorescent PCSK9-mCherry or LDLR-EGFP (FIG. 4). Twenty-hours post cDNA transfections, cells were incubated either with vehicle (DMSO) or 5 μM MG132, a proteasome inhibitor.

[2] = target: PCSK9 binding to the LDLR EGFA domain (Homo sapiens, UniProt Q8NBP7); assay: In vitro PCSK9-LDLR(EGFA) competitive assay, plate coated with LDLR-EGFA domain; settings: 100 or 10 μM peptide, 100 ng wild-type human His-tagged PCSK9, pH6.1, 2 h
Chain of PCSK9 binding to the LDLR EGFA domain (Q8NBP7 153-692): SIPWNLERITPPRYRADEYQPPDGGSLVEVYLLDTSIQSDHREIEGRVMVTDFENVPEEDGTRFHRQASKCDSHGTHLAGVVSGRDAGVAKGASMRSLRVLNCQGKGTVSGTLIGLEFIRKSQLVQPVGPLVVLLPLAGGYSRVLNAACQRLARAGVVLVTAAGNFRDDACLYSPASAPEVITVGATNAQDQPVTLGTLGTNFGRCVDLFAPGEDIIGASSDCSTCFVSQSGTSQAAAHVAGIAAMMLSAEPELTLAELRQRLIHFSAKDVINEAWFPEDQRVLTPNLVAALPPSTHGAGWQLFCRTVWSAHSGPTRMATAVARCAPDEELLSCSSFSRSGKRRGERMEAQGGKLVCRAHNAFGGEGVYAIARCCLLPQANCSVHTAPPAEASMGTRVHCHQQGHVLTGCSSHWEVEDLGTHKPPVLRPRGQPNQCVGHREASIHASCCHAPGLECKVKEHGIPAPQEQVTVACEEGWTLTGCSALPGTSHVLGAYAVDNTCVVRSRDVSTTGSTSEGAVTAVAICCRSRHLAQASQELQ
Chain of PCSK9 binding to the LDLR EGFA domain (Q8NBP7 31-152 partner limits assumed): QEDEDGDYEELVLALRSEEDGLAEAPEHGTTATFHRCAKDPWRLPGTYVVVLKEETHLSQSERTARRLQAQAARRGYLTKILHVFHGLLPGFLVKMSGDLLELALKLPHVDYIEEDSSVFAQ
Method: SEQ ID. NO. 4 peptide was dissolved to 10 mM (working dilution) in DMEM media (Wisent Cat. #319-005-CL). In a total of 100 μl reaction buffer (HEPES buffer containing NaCl, CaCl2), BSA and proclin 300, pH6.1), SEQ ID. NO. 4 were added to a final concentration of 100 or 10 μM together with 100 ng wild-type human recombinant His-tagged PCSK9. Reaction buffer was added to 96 wells coated with recombinant LDLR-EGFA domain (involved in PCSK9-LDLR interaction) and incubated at room temperature for 2 h on an orbital microplate shaker (300 rpm). Following incubation, wells were washed 4 times with wash buffer and biotinylated anti-His-tag monoclonal antibody was added into each well and incubated for 1 h at room temperature. Following incubation wells were washed 4 times, and HRP-conjugated streptatvidin was added to each well and incubated for 20 min. Following 4 washes, 100 μl substrate reagent (TMB, tetra-methylbenzidine) were added for 15 min to each wells and enzymatic reaction stopped by adding 100 μl stop solution (1N […]). For each well, absorbance at 450 nm and 540 nm was measure and relative PCSK9 binding to LDLR-EGFA was determined according to a standard curve (100 ng to 1.56 ng). Inhibitory activities of SEQ ID. […]

PCSK9-V5 = target: T1, PCSK9-V5 (Homo sapiens, UniProt Q8NBP7); assay: Co-immunoprecipitation of GRP94 constructs with PCSK9-V5 in transfected HEK293 cells; format: binding
T1 construct: Full-length human V5-tagged PCSK9 and LDLR were subcloned into pIRES2-EGFP; expressed in transfected cells; host or cells: HEK293
T1 sequence (Q8NBP7 153-692): as the sequence (Q8NBP7 153-692) above
Method: FIG. 2: Mapping of the PCSK9-GRP94 interacting domain. (a-b) HEK293 cells were transfected without (−) or with (+) PCSK9-V5 or SEQ ID NO. 66, 64 or 65. A PCSK9 V5 epitope-tag fusion protein (PCSK9-V5) was immune-precipitated from cell lysates using mAb-V5 antibody (IP: V5) and immune-blotted as indicated. Total GRP94 (SEQ. ID. NO. 3) and PCSK9 (SEQ. ID. NO. 1) protein levels were analyzed by immune-blotting in cell lysates (input) and conditioned media. (c) Left panel; HEK293 cells were transfected without (−) or with (+) PCSK9-V5, SEQ. ID. NO. 66 or 46. PCSK9-V5 was immune-precipitated for cell lysates (IP: V5) and immune-blotted (IB) as indicated. Total GRP94 and PCSK9 protein levels were also analyzed by immune-blotting and herein used as a control (input). Right panel; GRP94 homodimer (gray and yellow) crystal structure was determined from PDB file #2O1V using MacPymol software. […] 6 in which critical residues for PCSK9 binding determined in (b) are indicated in blue for SEQ. ID. NO. 64 and red for SEQ. ID. NO. 65. Data are representative of at least three independent experiments.
For identification of novel PCSK9 interactors, HepG2 or Huh-7 cells (55 cm2) were washed three times in phosphate-buffered saline (PBS) and incubated with 1 mM dithiobis[succinimidylpropionate] (DSP; Cat. #22585, Thermo Scientific), a thiol-cleavable cross-linking reagent, for 30 min at room temperature and subsequently switch for 15 min into a stop solution (15 mM Tris, pH 7.5). Cells were then lysed in complete radio-immune precipitation assay (RIPA) buffer (50 mM Tris/HCl, pH 8.0, 1% (v/v) Nonidet P40, 0.5% sodium deoxycholate, 150 mM NaCl and 0.1% (v/v) sodium dodecyl sulfate (SDS)) supplemented with a complete protease inhibitor mixture (Cat. #11 697 498 001, Roche Applied Science), passed 25 times through a 22-gauge needle and centrifuged at 11,000 g for 15 min at 4° C. Supernatants were incubated and rotated overnight with pre-immune serum, rabbit anti-hPCSK9 (amino acids 31-454) (1:250; Dr. Nabil Seidah, Clinical Research Institute of Montreal) or mouse anti-V5-tag (1:500; Cat. #R96025, Life Technologies) together with 50 μl protein A/G PLUS-agarose (Cat. #sc-2003, Santa Cruz). Following overnight incubation, beads were washed six times in RIPA buffer and resuspended in 75 μl Laemmli sample buffer. Co-immunoprecipitated (Co-IP) proteins were separated by 8% SDS-polyacrylamide gel electrophoresis and visualized using the Pierce silver stain kit (Cat. #24600, Thermo Scientific) according the manufacturer's instructions. All other Co-IP experiments were performed as described without the cross-linking step and in SDS-deprived RIPA buffer. HA-tagged proteins and GRP94 were immunoprecipitated with mouse anti-HA-tag (1:500; Cat. #H3663, Sigma-Aldrich) or rat anti-Grp94 (9G10, 1:1000; Cat. #ADI-SPA-850, Enzo Life Sciences).
We next decided to map GRP94 domain(s) important for PCSK9 protein-protein interaction. The overall domain structure of GRP94 includes a signal polypeptide (amino acids; aa1-21) followed by a N-terminal enzymatic ATP-binding domain (aa22-651), client-binding domain (CBD; aa652-678), C-terminal dimerization domain (aa679-799) and a KDEL polypeptide sequence (aa800-803) allowing retention of GRP94 in the endoplasmic reticulum. (Dollins et al., 2007; Maki et al., 1990; Wu et al., 2012) Thus, we first generated cDNA constructs encoding secretable HA-tagged forms of human GRP94 lacking its C-terminal KDEL polypeptide (SEQ ID. NO. 66; FIG. 2). HEK293 cells were transfected without or with SEQ ID. NO. 66 in absence or presence of PCSK9-V5 (FIG. 2a). […] NO. 66 is well expressed (Input; IB: HA) and secreted into media and that SEQ ID. NO. […] It was reported that a 27 aa C-terminal hydrophobic loop structure within GRP94 client-binding domain (CBD, amino acids aa652-678; ^652[…], SEQ ID. NO. 4) was important for folding and interaction with Toll-like receptors and integrins. (Wu et al., 2012) Deletion or alanine-scan mutations in SEQ ID. […]

[3] = tested on: LDLR degradation induced by overexpression of PCSK9; assay: LDLR degradation after co-expression with PCSK9-V5 (intracellular pathway), immunoblot; format: cell-based, human
Method: FIG. 7: SEQ ID NO. 6 prevents PCSK9-induced LDLR degradation. (a) Left; Coomassie staining of purified recombinant SEQ ID NO. 6 and PCSK9 separated by SDS-PAGE is shown. Right; HepG2 cells were incubated in DMEM without or with 0, 25, 100 or 250 nM SEQ ID NO. 6 alone or in presence of recombinant PCSK9. (b) HepG2 cells were transfected without (−) or with PCSK9-V5 in absence (−) or presence SEQ ID NO. 66 or SEQ ID NO. 46. Total LDLR, PCSK9, SEQ ID NO. 66, SEQ ID NO. 46 and β-actin protein levels were analyzed by immunoblotting in cell lysates and conditioned media as indicated. Data are representative of at least three independent experiments.
We next tested whether SEQ ID. NO. 6 could alter the capacity of PCSK9 to induce LDLR degradation. HepG2 cells were incubated overnight with an increasing amount of recombinant SEQ ID. NO. 6 in absence or presence of exogenous PCSK9 (FIG. 7a). […] NO. […] Although that SEQ ID. NO. […] NO. […] (Poirier et al., 2009) As PCSK9 was also shown to induce LDLR degradation via an intracellular pathway, (Poirier et al., 2009) we evaluated to ability of SEQ ID. NO. 66 or SEQ ID. NO. 46 to neutralize PCSK9 in HepG2 cells following co-expression (FIG. 7b). Similar to the extracellular pathway (FIGS. 5b and 7a), both SEQ ID. NO. 66 and SEQ ID. NO. […] NO. 66 and specifically SEQ ID. NO. […]

For CC(C)C[C@@H](C=O)NC(=O)[C@H](CC(C)C)NC(=O)[C@H](CC(C)C)NC(=O)OCc1ccccc1 [MG132] (Cbz-Leu-Leu-Leu-aldehyde), which “Block of PCSK9-induced LDLR degradation after GRP94 knockdown” value [1] is on record?
The value was “not blocked”.

Which results are given for “YGWSGNMERIMKAQAYQTGKDISTNYY (YGWSGNMERIMKAQAYQTGKDISTNYY-NH2) [SEQ ID. NO. 4]”?
Inhibition of binding of PCSK9 to the LDLR EGFA domain [2]: inhibit binding of PCSK9 to the LDLR EGFA domain; Inhibition of binding of PCSK9 to the LDLR EGFA domain ([2]; listed as SEQ. ID. NO. 4): inhibits binding of PCSK9 to the LDLR EGFA domain

B1: SEQ ID. NO. 66: secretable HA-tagged form of human GRP94 lacking its C-terminal KDEL sequence (protein)
chain: MRALWVLGLCCVLLTFGSVRADDEVDVDGTVEEDLGKSREGSRTDDEVVQREEEAIQLDGLNASQIRELREKSEKFAFQAEVNRMMKLIINSLYKNKEIFLRELISNASDALDKIRLISLTDENALSGNEELTVKIKCDKEKNLLHVTDTGVGMTREELVKNLGTIAKSGTSEFLNKMTEAQEDGQSTSELIGQFGVGFYSAFLVADKVIVTSKHNNDTQHIWESDSNEFSVIADPRGNTLGRGTTITLVLKEEASDYLELDTIKNLVKKYSQFINFPIYVWSSKTETVEEPMEEEEAAKEEKEESDDEAAVEEEEEEKKPKTKKVEKTVWDWELMNDIKPIWQRPSKEVEEDEYKAFYKSFSKESDDPMAYIHFTAEGEVTFKSILFVPTSAPRGLFDEYGSKKSDYIKLYVRRVFITDDFHDMMPKYLNFVKGVVDSDDLPLNVSRETLQQHKLLKVIRKKLVRKTLDMIKKIADDKYNDTFWKEFGTNIKLGVIEDHSNRTRLAKLLRFQSSHHPTDITSLDQYVERMKEKQDKIYFMAGSSRKEAESSPFVERLLKKGYEVIYLTEPVDEYCIQALPEFDGKRFQNVAKEGVKFDESEKTKESREAVEKEFEPLLNWMKDKALKDKIEKAVVSQRLTESPCALVASQYGWSGNMERIMKAQAYQTGKDISTNYYASQKKTFEINPRHPLIRDMLRRIKEDEDDKTVLDLAVVLFETATLRSGYLLPDTKAYGDRIERMLRLSLNIDPDAKVEEEPEEEPEETAEDTTEDTEQDEDEEMDVGTDEEEETAKESTAEYPYDVPDYA
For B1, which “Interaction (binding) with PCSK9 by co-immunoprecipitation” value (PCSK9-V5) is on record?
Its value is “interacts in complex with PCSK9”.

And the “Interaction (binding) with PCSK9 by co-immunoprecipitation” value (PCSK9-V5; listed as SEQ. ID NO. 66)?
The value was “specifically binds to PCSK9”.

And the “Block of LDLR degradation induced by overexpression of PCSK9” value [3]?
Its value is “significantly block”.
